Measured values published in US20200223889A1 (Novo Nordisk, published 2020).
Positions of bridges follow the written chain, without caps; N, C: chain ends. Non-standard residues stand in square brackets, D forms with d. Phe(3,4-(OMe)2) = COc1ccc(C[C@H](N)C(=O)O)cc1OC; Phe(3,4-Cl2) = N[C@@H](Cc1ccc(Cl)c(Cl)c1)C(=O)O; Phe(4-CN) = N#Cc1ccc(C[C@H](N)C(=O)O)cc1; 1Nal = N[C@@H](Cc1cccc2ccccc12)C(=O)O; Hyp = O=C(O)[C@@H]1C[C@@H](O)CN1; Thz = O=C(O)[C@@H]1CSCN1; Aib = CC(C)(N)C(=O)O; Sar = CNCC(=O)O

Key:
[1] = biological target: human melanocortin 1 receptor (human, UniProt Q01726 1-317); assay: cell-based or functional assay
[2] = biological target: T1, human melanocortin 4 receptor (human, UniProt P32245 1-332); assay: cell-based or functional assay
[3] = biological target: T1, human melanocortin 4 receptor; assay: competition with 125-NDP-α-MSH, BHK human MC4R membranes
Description: In order to assess the binding affinity of the selected compounds for the human MC4R competitive binding assays was performed with radiolabeled NDP-alpha MSH (¹²⁵NDP-α-MSH).
The assay was performed in 96-well filterplates (Unifilter) using BHK cells stably expressing the human MC4 receptor.
The BHK cell membranes were prepared from frozen or fresh cells that were homogenized in 20 mM HEPES pH 7.1, 5 mM MgCl₂, 1 mg/ml bacitracin (buffer 1) and centrifuged at 15000 rpm at 4° C., 10 min in a Sorvall RC 5B plus, SS-34 rotor. The supernatant was discarded, and the pellets were re-suspended in buffer 1, homogenized and centrifuged two more times. The final pellets were re-suspended in buffer 1 and the protein concentration was measured and adjusted with buffer 1 to 5 mg/ml and the membrane preparation was kept at −80° C. until assay. The assay was run on a dilution of this cell membrane suspension without any further preparation. The suspension was diluted to give maximally 10% specific binding, i.e. to approx. 50-100 fold dilution, optimized after each membrane preparation. The assay was performed in a total volume of 200 μl: 50 μl of cell suspension, 50 μl of ¹²⁵NDP-α-MSH (apx. […] in final concentration), 50 μl of test compound and 50 μl binding buffer were mixed and incubated for 2 h at 25° C. (binding buffer: 25 mM HEPES, pH 7.0, 1 mM CaCl₂), 1 mM MgSO₄, 1 mM EGTA, 0.005% Tween™ 20 and 0.1% HSA or, alternatively, 0.1% ovalbumin (Sigma; catalogue No. A-5503)). Test compounds were dissolved in 100% DMSO and diluted in binding buffer in a dose range from 1 μM to 0.001 nM. Radiolabelled ligand and membranes were diluted in binding buffer. The incubation was stopped by dilution with 8×100 μl ice-cold 0.9% NaCl. The radioactivity retained on the filters was counted using a Packard Topcounter. The data were analysed by non-linear regression analysis of binding curves, using the Windows™ program GraphPad™ Prism (GraphPad Software, USA).

human melanocortin 1 receptor, sequence (Q01726 whole entry): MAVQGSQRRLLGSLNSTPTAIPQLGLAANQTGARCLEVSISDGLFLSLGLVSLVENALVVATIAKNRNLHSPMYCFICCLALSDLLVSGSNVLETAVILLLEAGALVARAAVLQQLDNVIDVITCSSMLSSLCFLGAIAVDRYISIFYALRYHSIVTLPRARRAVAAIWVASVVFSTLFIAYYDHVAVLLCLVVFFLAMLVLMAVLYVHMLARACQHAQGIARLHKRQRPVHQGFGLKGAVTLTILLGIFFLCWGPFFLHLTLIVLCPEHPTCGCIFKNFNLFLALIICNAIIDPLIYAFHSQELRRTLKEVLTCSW
T1 sequence (P32245 whole entry): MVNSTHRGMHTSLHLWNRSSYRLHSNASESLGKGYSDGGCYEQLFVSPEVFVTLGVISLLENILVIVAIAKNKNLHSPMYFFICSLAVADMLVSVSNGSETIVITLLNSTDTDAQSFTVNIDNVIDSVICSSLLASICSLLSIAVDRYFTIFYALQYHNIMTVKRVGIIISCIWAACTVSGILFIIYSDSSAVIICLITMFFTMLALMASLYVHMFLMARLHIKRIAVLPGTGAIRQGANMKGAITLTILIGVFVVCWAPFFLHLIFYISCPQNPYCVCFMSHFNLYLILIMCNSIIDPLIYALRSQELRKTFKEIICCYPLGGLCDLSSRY

Binder | MC1R cAMP EC50 [1] [pM] | MC4R cAMP EC50 [2] [pM] | Ki [3] [pM]
cyclo(C[Aib]H[dF]HWCAKKKW) (disulfide 1-7; SMILES C[C@@H]1NC(=O)[C@@H]2CSSC[C@H](NC(=O)[C@H](Cc3c[nH]c4ccccc34)NC(=O)[C@H](CCCCN)NC(=O)[C@H](CCCCN)NC(=O)[C@H](CCCCN)NC1=O)C(=O)NC(C)(C)C(=O)N[C@@H](Cc1c[nH]cn1)C(=O)N[C@H](Cc1ccccc1)C(=O)N[C@@H](Cc1c[nH]cn1)C(=O)N[C@@H](Cc1c[nH]c3ccccc13)C(=O)N2, also called c[c[Cys-Aib-His-D-Phe-His-Trp-Cys]-Ala-Lys-Lys-Lys-Trp]) [Chem. 61] | > 1000 | 310 | 220
cyclo(C[Thz]H[dF]HWCAAKAW) (disulfide 1-7; SMILES C[C@@H]1NC(=O)[C@H](C)NC(=O)[C@@H]2CSSC[C@H](NC(=O)[C@H](Cc3c[nH]c4ccccc34)NC(=O)[C@H](C)NC(=O)[C@H](CCCCN)NC1=O)C(=O)N1CSC[C@H]1C(=O)N[C@@H](Cc1c[nH]cn1)C(=O)N[C@H](Cc1ccccc1)C(=O)N[C@@H](Cc1c[nH]cn1)C(=O)N[C@@H](Cc1c[nH]c3ccccc13)C(=O)N2, also called c[c[Cys-THAZ-His-D-Phe-His-Trp-Cys]-Ala-Ala-Lys-Ala-Trp]) [Chem. 109] | > 7000 | 150 | 300
cyclo(C[Thz]H[dF]HWCAKKAW) (disulfide 1-7; SMILES C[C@@H]1NC(=O)[C@H](CCCCN)NC(=O)[C@H](CCCCN)NC(=O)[C@H](C)NC(=O)[C@@H]2CSSC[C@H](NC(=O)[C@H](Cc3c[nH]c4ccccc34)NC1=O)C(=O)N1CSC[C@H]1C(=O)N[C@@H](Cc1c[nH]cn1)C(=O)N[C@H](Cc1ccccc1)C(=O)N[C@@H](Cc1c[nH]cn1)C(=O)N[C@@H](Cc1c[nH]c3ccccc13)C(=O)N2, also called c[c[Cys-THAZ-His-D-Phe-His-Trp-Cys]-Ala-Lys-Lys-Ala-Trp]) [Chem. 110] | 63300 | 50 | 90
cyclo(C[Sar]H[dF]HWCAKKKR) (disulfide 1-7; SMILES C[C@@H]1NC(=O)[C@@H]2CSSC[C@H](NC(=O)[C@H](CCCNC(=N)N)NC(=O)[C@H](CCCCN)NC(=O)[C@H](CCCCN)NC(=O)[C@H](CCCCN)NC1=O)C(=O)N(C)CC(=O)N[C@@H](Cc1c[nH]cn1)C(=O)N[C@H](Cc1ccccc1)C(=O)N[C@@H](Cc1c[nH]cn1)C(=O)N[C@@H](Cc1c[nH]c3ccccc13)C(=O)N2, also called c[c[Cys-Sar-His-D-Phe-His-Trp-Cys]-Ala-Lys-Lys-Lys-Arg]) [Chem. 74] | > 5500 | 290 | 80
cyclo(C[Thz]H[dF]HWCAKKKR) (disulfide 1-7; SMILES C[C@@H]1NC(=O)[C@@H]2CSSC[C@H](NC(=O)[C@H](CCCNC(=N)N)NC(=O)[C@H](CCCCN)NC(=O)[C@H](CCCCN)NC(=O)[C@H](CCCCN)NC1=O)C(=O)N1CSC[C@H]1C(=O)N[C@@H](Cc1c[nH]cn1)C(=O)N[C@H](Cc1ccccc1)C(=O)N[C@@H](Cc1c[nH]cn1)C(=O)N[C@@H](Cc1c[nH]c3ccccc13)C(=O)N2, also called c[c[Cys-THAZ-His-D-Phe-His-Trp-Cys]-Ala-Lys-Lys-Lys-Arg]) [Chem. 100] | 18500 | 20 | 40
cyclo(C[Hyp]H[dF]HWCAKKKR) (disulfide 1-7; SMILES C[C@@H]1NC(=O)[C@@H]2CSSC[C@H](NC(=O)[C@H](CCCNC(=N)N)NC(=O)[C@H](CCCCN)NC(=O)[C@H](CCCCN)NC(=O)[C@H](CCCCN)NC1=O)C(=O)N1C[C@H](O)C[C@H]1C(=O)N[C@@H](Cc1c[nH]cn1)C(=O)N[C@H](Cc1ccccc1)C(=O)N[C@@H](Cc1c[nH]cn1)C(=O)N[C@@H](Cc1c[nH]c3ccccc13)C(=O)N2, also called c[c[Cys-Hyp-His-D-Phe-His-Trp-Cys]-Ala-Lys-Lys-Lys-Arg]) [Chem. 97] | 23100 | 190 | 50
cyclo(CAH[dF]R[Phe(4-CN)]CAKKKW) (disulfide 1-7; SMILES C[C@@H]1NC(=O)[C@@H]2CSSC[C@H](NC(=O)[C@H](Cc3ccc(C#N)cc3)NC(=O)[C@H](CCCNC(=N)N)NC(=O)[C@@H](Cc3ccccc3)NC(=O)[C@H](Cc3c[nH]cn3)NC1=O)C(=O)N[C@@H](C)C(=O)N[C@@H](CCCCN)C(=O)N[C@@H](CCCCN)C(=O)N[C@@H](CCCCN)C(=O)N[C@@H](Cc1c[nH]c3ccccc13)C(=O)N2, also called c[c[Cys-Ala-His-D-Phe-Arg-4-CN-Phe-Cys]-Ala-Lys-Lys-Lys-Trp]) [Chem. 65] | 10800 | 420 | 470
cyclo(AAH[dF]RWAAH[dF]RW) (SMILES C[C@@H]1NC(=O)[C@H](C)NC(=O)[C@H](Cc2c[nH]c3ccccc23)NC(=O)[C@H](CCCNC(=N)N)NC(=O)[C@@H](Cc2ccccc2)NC(=O)[C@H](Cc2c[nH]cn2)NC(=O)[C@H](C)NC(=O)[C@H](C)NC(=O)[C@H](Cc2c[nH]c3ccccc23)NC(=O)[C@H](CCCNC(=N)N)NC(=O)[C@@H](Cc2ccccc2)NC(=O)[C@H](Cc2c[nH]cn2)NC1=O, also called c[Ala-Ala-His-D-Phe-Arg-Trp-Ala-Ala-His-D-Phe-Arg-Trp]) [Chem. 7] | 4560 | 60 | 470
cyclo(CAH[dF]R[1Nal]CAKKKW) (disulfide 1-7; SMILES C[C@@H]1NC(=O)[C@@H]2CSSC[C@H](NC(=O)[C@H](Cc3cccc4ccccc34)NC(=O)[C@H](CCCNC(=N)N)NC(=O)[C@@H](Cc3ccccc3)NC(=O)[C@H](Cc3c[nH]cn3)NC1=O)C(=O)N[C@@H](C)C(=O)N[C@@H](CCCCN)C(=O)N[C@@H](CCCCN)C(=O)N[C@@H](CCCCN)C(=O)N[C@@H](Cc1c[nH]c3ccccc13)C(=O)N2, also called c[c[Cys-Ala-His-D-Phe-Arg-1-Nal-Cys]-Ala-Lys-Lys-Lys-Trp]) [Chem. 64] | 4230 | 30 | 90
cyclo(CAH[dF]R[Phe(3,4-(OMe)2)]CAKKKW) (disulfide 1-7; SMILES COc1ccc(C[C@@H]2NC(=O)[C@H](CCCNC(=N)N)NC(=O)[C@@H](Cc3ccccc3)NC(=O)[C@H](Cc3c[nH]cn3)NC(=O)[C@H](C)NC(=O)[C@@H]3CSSC[C@H](NC2=O)C(=O)N[C@@H](C)C(=O)N[C@@H](CCCCN)C(=O)N[C@@H](CCCCN)C(=O)N[C@@H](CCCCN)C(=O)N[C@@H](Cc2c[nH]c4ccccc24)C(=O)N3)cc1OC, also called c[c[Cys-Ala-His-D-Phe-Arg-3,4-DiMeo-Phe-Cys]-Ala-Lys-Lys-Lys-Trp]) [Chem. 67] | > 55000 | 2990 | 950
XAHFRWCAHXRW (Pen 1; D-Phe 4, 10; disulphide Pen1-Cys7; head-to-tail amide Pen1-Trp12, also called c[c[Pen-Ala-His-D-Phe-Arg-Trp-Cys]-Ala-His-D-Phe-Arg-Trp]) [Chem. 63] | 840 | 20 | 80
cyclo(CAH[dF]K(Ac)WCAK[dK]KW) (disulfide 1-7; SMILES CC(=O)NCCCC[C@@H]1NC(=O)[C@@H](Cc2ccccc2)NC(=O)[C@H](Cc2c[nH]cn2)NC(=O)[C@H](C)NC(=O)[C@@H]2CSSC[C@H](NC(=O)[C@H](Cc3c[nH]c4ccccc34)NC1=O)C(=O)N[C@@H](C)C(=O)N[C@@H](CCCCN)C(=O)N[C@H](CCCCN)C(=O)N[C@@H](CCCCN)C(=O)N[C@@H](Cc1c[nH]c3ccccc13)C(=O)N2, also called c[c[Cys-Ala-His-D-Phe-AcLys-Trp-Cys]-Ala-Lys-D-Lys-Lys-Trp]) [Chem. 58] | 3930 | 110 | 90
cyclo(CAH[dF]R[Phe(3,4-Cl2)]CAKKKW) (disulfide 1-7; SMILES C[C@@H]1NC(=O)[C@@H]2CSSC[C@H](NC(=O)[C@H](Cc3ccc(Cl)c(Cl)c3)NC(=O)[C@H](CCCNC(=N)N)NC(=O)[C@@H](Cc3ccccc3)NC(=O)[C@H](Cc3c[nH]cn3)NC1=O)C(=O)N[C@@H](C)C(=O)N[C@@H](CCCCN)C(=O)N[C@@H](CCCCN)C(=O)N[C@@H](CCCCN)C(=O)N[C@@H](Cc1c[nH]c3ccccc13)C(=O)N2, also called c[c[Cys-Ala-His-D-Phe-Arg-3,4-DiCl-Phe-Cys]-Ala-Lys-Lys-Lys-Trp]) [Chem. 66] | 220 | 10 | 30
cyclo(CH[dF]RWRCH[dF]RWR) (disulfide 1-7; SMILES N=C(N)NCCC[C@@H]1NC(=O)[C@H](Cc2c[nH]c3ccccc23)NC(=O)[C@H](CCCNC(=N)N)NC(=O)[C@@H](Cc2ccccc2)NC(=O)[C@H](Cc2c[nH]cn2)NC(=O)[C@@H]2CSSC[C@H](NC1=O)C(=O)N[C@@H](Cc1c[nH]cn1)C(=O)N[C@H](Cc1ccccc1)C(=O)N[C@@H](CCCNC(=N)N)C(=O)N[C@@H](Cc1c[nH]c3ccccc13)C(=O)N[C@@H](CCCNC(=N)N)C(=O)N2, also called c[c[Cys-His-D-Phe-Arg-Trp-Arg-Cys]-His-D-Phe-Arg-Trp-Arg]) [Chem. 68] | 4870 | 4350 | 10400
